Test [1] addresses T1, Bcl-xL (Homo sapiens, UniProt Q07817).
T1 construct: myc-Bcl-xL SPOT array & FP; made in house
Nature of the test: LUMIER full-length protein interaction. It counts as binding. As to conditions: LUMIER results for Bcl-xL, Z-score of the interaction relative to the Gaussian fit of the data. Here is the method:
(§1) The LUMIER assay was carried out as previously described with the following modifications. A stable cell line expressing receptor tagged on the N-terminus with Nanoluc luciferase was created (the prey). […] Each bait construct was transfected into the receptor-luciferase cells in a 96-well format and after 48 hours the cells were lysed and transferred to 384-well plates coated with anti-FLAG. After incubation and washing, luminescence was measured to quantify how much receptor-luciferase was captured by the bait protein. Anti-Flag ELISA signal was used to exclude bait proteins that were not expressed. The experiment was carried out two times, each in duplicate.

Test [2] deals with T2, Mcl-1 (Homo sapiens, UniProt Q07820).
T2 construct: myc-Mcl-1 SPOT array & FP; made in house
T2 sequence (Q07820 with tags, fused parts or gaps): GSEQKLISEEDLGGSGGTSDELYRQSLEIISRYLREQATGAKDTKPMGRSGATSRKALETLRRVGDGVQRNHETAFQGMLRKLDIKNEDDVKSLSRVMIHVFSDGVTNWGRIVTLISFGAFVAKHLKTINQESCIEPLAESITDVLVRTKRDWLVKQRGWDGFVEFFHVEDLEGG
Description: LUMIER full-length protein interaction. It counts as binding. As to conditions: LUMIER results for Mcl-1, Z-score relative to Gaussian fit of the data. As to the method:
as §1

The values that follow come from paper PMC4072508, “Genome-Wide Prediction and Validation of Peptides That Bind Human Prosurvival Bcl-2 Proteins” (PLoS Computational Biology, 2014).

T1 sequence (Q07817 with tags, fused parts or gaps): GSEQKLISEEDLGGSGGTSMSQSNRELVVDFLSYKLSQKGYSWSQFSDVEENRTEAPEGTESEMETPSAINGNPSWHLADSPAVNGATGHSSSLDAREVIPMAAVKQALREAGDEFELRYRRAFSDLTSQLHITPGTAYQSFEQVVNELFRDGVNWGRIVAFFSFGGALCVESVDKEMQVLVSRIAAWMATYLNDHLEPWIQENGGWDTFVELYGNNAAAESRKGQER

B1: MTA2 (protein, UniProt O94776 1-668, looked up)
Metastasis-associated protein …: MAANMYRVGDYVYFENSSSNPYLVRRIEELNKTANGNVEAKVVCLFRRRDISSSLNSLADSNAREFEEESKQPGVSEQQRHQLKHRELFLSRQFESLPATHIRGKCSVTLLNETDILSQYLEKEDCFFYSLVFDPVQKTLLADQGEIRVGCKYQAEIPDRLVEGESDNRNQQKMEMKVWDPDNPLTDRQIDQFLVVARAVGTFARALDCSSSIRQPSLHMSAAAASRDITLFHAMDTLQRNGYDLAKAMSTLVPQGGPVLCRDEMEEWSASEAMLFEEALEKYGKDFNDIRQDFLPWKSLASIVQFYYMWKTTDRYIQQKRLKAAEADSKLKQVYIPTYTKPNPNQIISVGSKPGMNGAGFQKGLTCESCHTTQSAQWYAWGPPNMQCRLCASCWIYWKKYGGLKTPTQLEGATRGTTEPHSRGHLSRPEAQSLSPYTTSANRAKLLAKNRQTFLLQTTKLTRLARRMCRDLLQPRRAARRPYAPINANAIKAECSIRLPKAAKTPLKIHPLVRLPLATIVKDLVAQAPLKPKTPRGTKTPINRNQLSQNRGLGGIMVKRAYETMAGAGVPFSANGRPLASGIRSSSQPAAKRQKLNPADAPNPVVFVATKDTRALRKALTHLEMRRAARRPNLPLKVKPTLIAVRPPVPLPAPSHPASTNEPIVLED
Turning to B1, in test [1] (experiment 1, duplicate 1), the “z-score 1.1” value was determined as 11.5243. Further, the “z-score 1.2” value in test [1] (experiment 1, duplicate 2) is recorded as 0.8005; in test [2] (experiment 1, duplicate 2), 0.31. Besides, the “z-score 2.1” value in test [1] (experiment 2, duplicate 1) is -0.1835; in test [2] (experiment 2, duplicate 1), 0.117. Further, the “z-score 2.2” value is 0.205 in test [1] (experiment 2, duplicate 2) and 0.04852 in test [2] (experiment 2, duplicate 2).
